In patent US20240092849A1 (MIT, published 2024):
Each block holds one binder with its values, some of them ahead of it. Bridge positions count the residues as written; N and C are the ends. Square brackets hold non-standard residues; d marks the D form. Ends that are not written are not given here. alpha‑4‑pentenylAla = alpha-4-pentenyl alanine, stapling residue joined by ring-closing olefin metathesis; Cha = N[C@@H](CC1CCCCC1)C(=O)O; Nle = CCCC[C@H](N)C(=O)O; Aib = CC(C)(N)C(=O)O

Tests used:
Mcl-1 [1] = target: T1, Mcl-1 (human, UniProt Q07820 172-327, limits assumed); experiment: fluorescence anisotropy competition with fluoresceinated Bim 21mer for Mcl-1
T1 construct: Recombinant protein in solution assays; It was biotinylated in the on-bead screens; also called human Mcl-1; BioMcl-1 (biotinylated, in the bead screens)
T1 sequence (Q07820 172-327 limits assumed): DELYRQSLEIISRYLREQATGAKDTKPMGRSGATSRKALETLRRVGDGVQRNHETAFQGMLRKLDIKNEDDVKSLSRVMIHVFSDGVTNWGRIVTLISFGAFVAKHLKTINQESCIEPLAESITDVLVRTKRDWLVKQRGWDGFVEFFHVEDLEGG
Source text: The standard errors reported are over three experiments.
Position 2e is usually conserved as small (alanine, glycine, serine) in natural BH3 sequences.

Mcl-1 [2] = target: T1, Mcl-1; experiment: biolayer interferometry, biotinylated peptide on streptavidin probe
Source text: We used biolayer interferometry to measure the kinetics of binding of stapled peptides to Mcl-1 (FIG. 1(b)). We generated biotinylated stapled peptides and attached these to a streptavidin-modified probe surface.

murine Mcl-1 = murine Mcl-1 (murine, UniProt P97287 1-331); experiment: cell-based or functional assay
Sequence of murine Mcl-1 (P97287 whole entry): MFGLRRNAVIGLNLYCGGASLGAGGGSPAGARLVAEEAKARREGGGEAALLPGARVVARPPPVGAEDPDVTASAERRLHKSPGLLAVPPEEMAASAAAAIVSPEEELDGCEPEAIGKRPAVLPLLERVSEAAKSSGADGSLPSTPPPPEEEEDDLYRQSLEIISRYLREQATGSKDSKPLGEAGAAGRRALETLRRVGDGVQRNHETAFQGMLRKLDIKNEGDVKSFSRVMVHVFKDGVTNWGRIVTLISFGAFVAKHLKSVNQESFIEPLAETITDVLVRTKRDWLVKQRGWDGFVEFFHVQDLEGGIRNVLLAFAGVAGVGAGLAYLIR

B1: M1d (peptide)
peptide: IW[Nle]TQGLRRLGDEI[alpha‑4‑pentenylAla]AYY[alpha‑4‑pentenylAla]RR
modifications: staple 15-19
notes: Truncated, stapled variant of MS1, usually printed 'Mld'; also called Mld
IC50 (Mcl-1 [1]): 350 nM

B3: biotinylated M3d (peptide)
peptide: IW[Nle][Aib]QG[Cha]RRLGDEI[alpha‑4‑pentenylAla]AYY[alpha‑4‑pentenylAla]RR
modifications: staple 15-19; also: biotinylated, site and linker not given here
notes: also called M3d (biotinylated stapled peptide)
Kd (Mcl-1 [2]): 5 nM

More lines, in order of falling IC50 (Mcl-1 [1]), values ahead:

IC50 (Mcl-1 [1]): 106 nM
B2: M2d (peptide)
peptide: IW[Nle][Aib]QGLRRLGDEI[alpha‑4‑pentenylAla]AYY[alpha‑4‑pentenylAla]RR
modifications: staple 15-19
notes: Stapled peptide IWBAibQGLRRLGDEIXAYYXRR

IC50 (Mcl-1 [1]): 72 nM
BH3 profiling (mitochondrial membrane integrity, JC1 dye) in Mcl-1/Myc 2640 cells, EC50 (murine Mcl-1): 30 nM
B4: M3d (peptide)
peptide: IW[Nle][Aib]QG[Cha]RRLGDEI[alpha‑4‑pentenylAla]AYY[alpha‑4‑pentenylAla]RR
modifications: staple 15-19
notes: Stapled peptide IWBAibQGChaRRLGDEIXAYYXRR
